T1: murine CD22 protein (ACROBiosystems, SI2-M52Ha) (murine, UniProt P35329 22-708)
T1 construct: extracellular domain; also called murine CD22-ECD; murine CD22-ECD-His
T1 sequence (looked up): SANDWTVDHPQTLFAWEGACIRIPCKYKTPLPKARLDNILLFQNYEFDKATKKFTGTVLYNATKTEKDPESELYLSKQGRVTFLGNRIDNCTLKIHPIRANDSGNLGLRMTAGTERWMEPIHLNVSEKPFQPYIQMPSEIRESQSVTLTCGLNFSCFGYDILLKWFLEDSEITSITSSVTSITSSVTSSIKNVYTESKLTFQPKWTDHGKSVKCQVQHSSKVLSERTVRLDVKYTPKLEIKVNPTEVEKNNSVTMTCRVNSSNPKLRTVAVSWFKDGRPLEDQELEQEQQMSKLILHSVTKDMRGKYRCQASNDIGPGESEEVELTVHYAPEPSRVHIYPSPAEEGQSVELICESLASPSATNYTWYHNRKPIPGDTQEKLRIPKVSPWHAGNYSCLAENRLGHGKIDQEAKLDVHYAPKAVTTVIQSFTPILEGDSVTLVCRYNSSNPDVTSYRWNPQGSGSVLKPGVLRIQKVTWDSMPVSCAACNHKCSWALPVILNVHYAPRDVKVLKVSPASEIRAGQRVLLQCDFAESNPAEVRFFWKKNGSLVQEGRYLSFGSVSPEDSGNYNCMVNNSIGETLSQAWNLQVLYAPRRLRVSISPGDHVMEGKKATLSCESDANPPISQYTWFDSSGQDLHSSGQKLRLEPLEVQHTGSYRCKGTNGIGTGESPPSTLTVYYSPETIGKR

T2: human CD22, full length, on CHO-K1-human CD22 2C4 cells (human, UniProt P20273 20-847)
T2 construct: Full-length human CD22 (NCBI NP_001762.2) stably transfected into CHO-K1
T2 sequence: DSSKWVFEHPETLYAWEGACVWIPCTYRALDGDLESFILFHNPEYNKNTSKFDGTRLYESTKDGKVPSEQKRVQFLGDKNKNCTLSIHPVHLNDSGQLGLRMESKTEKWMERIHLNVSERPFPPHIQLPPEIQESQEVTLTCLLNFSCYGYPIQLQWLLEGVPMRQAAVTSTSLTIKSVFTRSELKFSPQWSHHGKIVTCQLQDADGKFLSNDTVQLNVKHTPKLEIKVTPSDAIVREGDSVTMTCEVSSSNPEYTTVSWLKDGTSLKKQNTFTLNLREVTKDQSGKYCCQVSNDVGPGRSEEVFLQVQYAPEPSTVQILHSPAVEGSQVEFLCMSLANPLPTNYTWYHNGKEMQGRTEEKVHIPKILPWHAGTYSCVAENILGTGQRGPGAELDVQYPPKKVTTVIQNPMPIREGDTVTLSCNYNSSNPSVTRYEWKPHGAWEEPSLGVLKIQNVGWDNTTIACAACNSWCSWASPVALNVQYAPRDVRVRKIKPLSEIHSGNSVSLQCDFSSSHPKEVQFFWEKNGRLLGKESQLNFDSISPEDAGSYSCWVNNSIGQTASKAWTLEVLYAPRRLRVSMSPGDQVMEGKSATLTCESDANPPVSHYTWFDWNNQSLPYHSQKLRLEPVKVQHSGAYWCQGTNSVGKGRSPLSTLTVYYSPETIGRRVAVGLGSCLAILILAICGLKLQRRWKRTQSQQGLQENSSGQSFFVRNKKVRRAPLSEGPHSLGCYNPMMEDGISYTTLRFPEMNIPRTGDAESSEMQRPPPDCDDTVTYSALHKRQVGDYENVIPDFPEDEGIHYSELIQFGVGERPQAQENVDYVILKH

T3: human CD22, endogenous on Raji cells (human, UniProt P20273 20-847)
T3 construct: whole, on cells; Endogenous protein of the Raji cell line
T3 sequence (looked up): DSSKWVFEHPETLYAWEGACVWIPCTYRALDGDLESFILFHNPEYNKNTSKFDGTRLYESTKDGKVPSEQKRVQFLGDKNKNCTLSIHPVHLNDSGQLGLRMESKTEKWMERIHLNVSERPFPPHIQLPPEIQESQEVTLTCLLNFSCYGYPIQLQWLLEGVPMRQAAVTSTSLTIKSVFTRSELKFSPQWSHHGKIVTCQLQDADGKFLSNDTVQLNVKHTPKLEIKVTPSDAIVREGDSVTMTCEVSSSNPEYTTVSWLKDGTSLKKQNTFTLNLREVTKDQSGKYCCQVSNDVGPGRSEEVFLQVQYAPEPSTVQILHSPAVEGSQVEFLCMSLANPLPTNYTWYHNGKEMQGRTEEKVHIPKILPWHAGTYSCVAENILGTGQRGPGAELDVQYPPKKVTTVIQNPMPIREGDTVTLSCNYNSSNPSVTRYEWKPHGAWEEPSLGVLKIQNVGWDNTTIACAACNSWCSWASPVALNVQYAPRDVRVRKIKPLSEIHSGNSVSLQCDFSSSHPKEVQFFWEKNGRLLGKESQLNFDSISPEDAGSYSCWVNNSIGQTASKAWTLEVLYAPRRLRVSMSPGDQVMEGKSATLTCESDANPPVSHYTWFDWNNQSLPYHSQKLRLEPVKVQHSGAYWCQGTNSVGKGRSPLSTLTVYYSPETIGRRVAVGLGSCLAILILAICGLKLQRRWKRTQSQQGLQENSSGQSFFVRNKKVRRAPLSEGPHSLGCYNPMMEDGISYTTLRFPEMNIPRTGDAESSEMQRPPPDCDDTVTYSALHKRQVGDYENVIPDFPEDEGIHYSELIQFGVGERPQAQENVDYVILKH


Experiments:
[1] = target: T1, murine CD22 protein (ACROBiosystems, …); test: ELISA, coated murine CD22, 100 nM Ab
Experimental: (§1) In order to detect the binding activity of CD22 human-murine chimeric antibodies to CD22 protein, the purified human CD22-ECD-His protein obtained in Example 2 was diluted with PBS to a final concentration of 2 μg/mL, and then added to 96-well ELISA plate at 100 μl/well. The plate was sealed with plastic film and incubated overnight at 4° C., the plate was washed 2 times with PBS the next day, and then a blocking solution [PBS+2% (w/w) BSA] was added for blocking at room temperature for 2 hours. […] After incubation at 37° C. for 2 hours, the plate was washed 3 times with PBS. HRP (horseradish peroxidase)-labeled secondary antibody (purchased from Sigma, catalog number: A0170) was added, and incubated at 37° C. for 2 hours, and the plate was washed 5 times with PBS. TMB substrate was added at 50 μl/well, and incubated at room temperature for 30 minutes, then a stop solution (1.0 N HCl) was added at 50 μl/well.
(§2) In order to detect the species cross-binding activity of the chimeric antibodies, an ELISA plate was coated with commercial murine CD22 protein (ACROBiosystems, catalog number: SI2-M52Ha) and monkey CD22 protein (ACROBiosystems, catalog number: SI2-R52Ha), respectively, and the ELISA detection was performed according to the method in Example 5.1.

[2] = target: T2, human CD22, full length, on …; test: FACS, CHO-K1-human CD22 2C4 cells
From the text: (§3) The required cells were scale-up cultured in a T-75 cell culture flask to the logarithmic growth phase. For the adherent cell CHO-K1, the medium was aspirated, the cells were washed 2 times with PBS buffer, and then digested with trypsin. After the digestion was terminated, the cells were washed 2 times with PBS buffer. For suspension cell Raji, the medium supernatant was directly centrifuged and discarded, and the cell pellet was washed 2 times with PBS. After counting the cells in the previous step, the cell pellet was resuspended with [PBS+2% (w/w) BSA] blocking solution to 2×10⁶ cells/ml, and added to a 96-well FACS reaction plate at 50 μl/well, and then the chimeric antibody test sample was added at 50 μl/well, and incubated on ice for 2 hours. The mixture was centrifuged and washed 3 times with PBS buffer, Alexa Flour 488-labeled secondary antibody (purchased from Invitrogen, catalog number: A-11013) was added at 50 μl/well, and incubated on ice for 1 hour. The obtained mixture was centrifuged and washed 5 times with PBS, and FACS (FACS Canto™, purchased from BD Company) was used for detection and result analysis. Data analysis was performed by software (CellQuest) to obtain the mean fluorescence density (MFI)of the cells. And then software (GraphPad Prism8) was used for analysis, data fitting, and EC50 value calculation. […] The same method was used to detect the binding of the chimeric antibodies to endogenous CD22-negative cell MoLT4 cells (purchased from ATCC, CRL-1582) and CHO-K1 cells.

[3] = target: T1, murine CD22 protein (ACROBiosystems, …); test: ELISA, coated murine CD22, 10 nM Ab
Experimental: as §1, §2

[4] = target: T1, murine CD22 protein (ACROBiosystems, …); test: ELISA, coated murine CD22, 0.001 nM Ab
Experimental: as §1, §2

[5] = target: T1, murine CD22 protein (ACROBiosystems, …); test: ELISA, coated murine CD22, 0.01 nM Ab
Experimental: as §1, §2

[6] = target: T1, murine CD22 protein (ACROBiosystems, …); test: ELISA, coated murine CD22, 0.0001 nM Ab
Experimental: as §1, §2

[7] = target: T3, human CD22, endogenous on Raji cells; test: FACS, Raji cells
From the text: as §3

[8] = target: T1, murine CD22 protein (ACROBiosystems, …); test: ELISA, coated murine CD22, 0.1 nM Ab
Experimental: as §1, §2

[9] = target: T1, murine CD22 protein (ACROBiosystems, …); test: ELISA, coated murine CD22, 0.00001 nM Ab
Experimental: as §1, §2

Binder	OD450 [1] [OD450]	EC50 [2] [nM]	Maximum mean fluorescence intensity [2] [MFI]	OD450 [3] [OD450]	OD450 [4] [OD450]	OD450 [5] [OD450]	OD450 [6] [OD450]	EC50 [7] [nM]	Maximum mean fluorescence intensity [7] [MFI]	OD450 [8] [OD450]	OD450 [9] [OD450]
F1.120.15 human-murine chimeric antibody (antibody, human IgG1, kappa, V domains shown, Chimeric, human IgG1 / kappa) VH: QVQLQQSGPELVKPGASVKISCKASGNAFSNSWMNWVKQRPGKGLEWIGRVYSEDGDTQYNGKFRDKATLTADRSTSTAYMQLSSLTSEDSAVYFCARWLIYYGTYGAMDYWGQGTSVTVSS VL: DIQMTQTTSSLSASLGDRVTISCRASQDINNYLNWYHQKPDGTVKLLIYFTSRPYSGVPSRFSGSGSGTDYSLTISNLEQEDIATYFCQQGNTLPWTFGGGTKLEIKR	0.06	1.07	27900	0.06	0.05	0.05	0.05	0.89	23700	0.05	0.06
F1.280.1 human-murine chimeric antibody (antibody, human IgG1, kappa, V domains shown, Chimeric, human IgG1 / kappa) VH: QIQLVQSGPELKKPGETVKISCKASGYTFTTYGMSWVKQTPGKGLTWMGWINTDSGVPTYADDFKRRFAFSLEASATTAYLQINNLKNEDTATYFCARGGPDYWGQGTTLTVSS VL: DILLTQSPATLSVTPGETVSLSCRASQSIYKNLHWYHQKSHRSPRLLIKYASDSISGIPSRFTGSGSGTNFTLSINSVKPEDEGIYYCLQGYIVPLTFGAGTKLELKR	0.16	0.92	43800	0.07	0.05	0.05	0.05	0.5	25000	0.05	0.06
F1.200.11 human-murine chimeric antibody (antibody, human IgG1, kappa, V domains shown, Chimeric, human IgG1 / kappa) VH: QNQLVQSGPELKKPGETVKISCKASGYTFTTAGMQWVQKMPGKGFKWIGWINTLSGEPKYAEDFKGRFAFSLETSATTAYLQISNLKNEDTATYFCARAYYSNLYWYFDVWGTGTTVTVSS VL: DIVMTQSQKFMSTTVGDRVTITCKASQNVVTAVAWYQQKPGQSPKVLIYSASNRYSGVPDRFTGSGSGTDFTLTISNMHSEDLANYFCHQYSSYPFTFGSGTKLEIKR	0.07	11.2	23000	0.06	0.05	0.05	0.05	2.41	20800	0.05	0.06

These reach a lower EC50 [2]. Values come first.

OD450 [1] [OD450]	EC50 [2] [nM]	Maximum mean fluorescence intensity [2] [MFI]	OD450 [3] [OD450]	OD450 [4] [OD450]	OD450 [5] [OD450]	OD450 [6] [OD450]	EC50 [7] [nM]	Maximum mean fluorescence intensity [7] [MFI]	OD450 [8] [OD450]	OD450 [9] [OD450]	Binder
0.06	0.49	37400	0.06	0.05	0.05	0.05	0.16	25000	0.05	0.06	F1.250.16 human-murine chimeric antibody (antibody, human IgG1, kappa, V domains shown, Chimeric, human IgG1 / kappa; VL tied by name) VH: QVQLQQSGAEQVKPGASVKMSCKASGYTFTTYPIEWMKQNHGESLDWIGNIHPYNDDTEYNEKFKGKATLTVEKSSNTVFLELSRLTSDDSAVYYCVRGDYYNSRYWYFDVWGTGTTVTVSS VL: DIVMTQSQKFMSTTVGDRVSITCKAGQNVRTAVAWYQQKPGQSPKLLIYSASTRYIGVPERFTGSGSGTDFTLTITNMQSEDLADYFCQQYSSFPLTFGTGTKLELKR
0.08	0.32	31500	0.06	0.05	0.05	0.06	0.16	25300	0.05	0.06	F1.216.2 human-murine chimeric antibody (antibody, human IgG1, kappa, V domains shown, Chimeric, human IgG1 / kappa) VH: QVQLQQSGPEVVRPGASVKISCKASGYAFSSSWMNWMKQRPGKALEWIGRIYPGDGDTNYSGEFKVKATLTADKSSSTAYMQLSSLTSEDSAVYFCAREGSYYSNPWYFDYWGQGTTLTVSS VL: DVLVTQTPLSLPVSLGDQASISCRSSQSIVQSNGDTYLEWYLQKPGQSPKLLIYKVSNRFSGVPDRFSGSGSGTDFTLKISRVEAEDLGVYYCFQGSHVPFTFGSGTKLEIKR
0.08	0.81	27200	0.08	0.06	0.07	0.07	0.37	24400	0.07	0.07	F1.192.1 human-murine chimeric antibody (antibody, human IgG1, kappa, V domains shown, Chimeric, human IgG1 / kappa) VH: AVQLQQSGVELVRPGASVKLSCTGSDFNIKEDYIHWVKQRPEQGLEWIGWIDPENGDTEYASKFQGKATITADTSSNTAYLQLSSLTSEDTAVYYCATYGSLDYWGQGTTLTVSS VL: DIKMTQSPSSMYAFLGERVTITCKASQGINSFLTWFQQKPGKSPKTLIYRANRLVDGVPSRFSGSGSGQDYSLTISSLEYEDVGIYYCLQYDEFPRTFGGGTKLEIKR
